Assay results taken from US5703220.

Columns and labels:
[1] = target: human melanocortin-4 (MC4) receptor (human)
[2] = target: human melanocortin-1 (MC1) receptor (human)

Substance | EC50 of cAMP response in transfected Hepa cells [1] | efficacy of cAMP response in transfected Hepa cells (% of the maximum response of α-MSH) [1] | cAMP generation in transfected L-cells (fold lower potency) [2]
γ-MSH (peptide) | 20 nM | 45 | 
Pro^11 γ-MSH (peptide) | 100 nM | 75 | 
β-MSH (peptide) |  |  | 10
